{"source": "patent US20230127087", "about": "“GLYPICAN-3-SPECIFIC MODIFIED APTAMER AND USE THEREOF” (APTAMER SCIENCES INC., published 2023)", "key": {"Glypican-3 (GPC3) [1]": {"target": "T1, Glypican-3 (GPC3) (UniProt P51654 P51654:25-554)", "T1 sequence (P51654 25-554, one chain of several)": "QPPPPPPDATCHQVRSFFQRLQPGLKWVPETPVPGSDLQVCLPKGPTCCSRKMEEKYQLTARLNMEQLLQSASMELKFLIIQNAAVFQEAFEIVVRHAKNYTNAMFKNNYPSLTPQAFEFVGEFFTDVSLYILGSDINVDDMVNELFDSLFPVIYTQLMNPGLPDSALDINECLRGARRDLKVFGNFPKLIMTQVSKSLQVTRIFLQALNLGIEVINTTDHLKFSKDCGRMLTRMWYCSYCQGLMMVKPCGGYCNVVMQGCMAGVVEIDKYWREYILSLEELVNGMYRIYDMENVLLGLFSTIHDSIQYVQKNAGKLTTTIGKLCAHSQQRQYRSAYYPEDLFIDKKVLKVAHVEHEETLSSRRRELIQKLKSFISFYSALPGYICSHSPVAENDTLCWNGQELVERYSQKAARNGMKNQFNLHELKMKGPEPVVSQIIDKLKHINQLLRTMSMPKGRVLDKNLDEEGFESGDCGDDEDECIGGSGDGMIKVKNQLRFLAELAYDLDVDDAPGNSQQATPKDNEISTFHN", "experiment": "Kd similar to 12-10; GPC3-Cy5; value only in figure", "details": "label: 5' Cy5 (cell assays)"}, "Glypican-3 (GPC3) [2]": {"target": "T1, Glypican-3 (GPC3)", "experiment": "filter; gemcitabine at 3' end; values only in figure"}, "Glypican-3 (GPC3) [3]": {"target": "T1, Glypican-3 (GPC3)", "experiment": "filter; gemcitabine in loop; values only in figure"}}, "data": [{"binder": "GTGAATGCGTTGAATTATGTCCCTTCAGTCATCAC (ssDNA, n = BzdU; 3' idT)", "note": "[12-12]", "values": [{"measurement": "binding result", "setting": "Glypican-3 (GPC3) [1]", "result": "binds"}]}, {"binder": "GGGAAGTGAATGCGTTGAATTATGTCCCTTCAGTCATCACCA (ssDNA, n = BzdU; S = gemcitabine [BzdU (T) at 7,11,15,16,20,21,23,25,29,30,34,37; gemcitabine (C) at 40,41])", "note": "[12-10 G(2)3']", "values": [{"measurement": "binding result", "setting": "Glypican-3 (GPC3) [2]", "result": "binds"}]}, {"binder": "GGGAAGTGAATGCGTTGAATTATGTCCCTTCAGTCATCAC (ssDNA, n = BzdU; S = gemcitabine [BzdU (T) at 7,11,15,16,20,21,23,25,29,30,34,37; gemcitabine (C) at 26,27])", "note": "[12-10 G(2)L]", "values": [{"measurement": "binding result", "setting": "Glypican-3 (GPC3) [3]", "result": "binds"}]}]}
